Biological target: PB2 polymerase subunit fused to Gluc1, of recombinant WSN virus (WSN-PB2-Gluc1) (UniProt P03427)
Conditions: parent: est. 100; read off a plot

## Gluc2-DDX19B wild type (from UniProt Q9UMR2) R428Q
  percent of parent: 68%

Source: publication PMC5037575
